Common to all, as to experiment: smFRET
In data set [1] the target is T1, Zur(Zn) Cy5-C113 (Escherichia coli, UniProt P0AC51 1-171, C17S;C152S;C158S).
T1 sequence: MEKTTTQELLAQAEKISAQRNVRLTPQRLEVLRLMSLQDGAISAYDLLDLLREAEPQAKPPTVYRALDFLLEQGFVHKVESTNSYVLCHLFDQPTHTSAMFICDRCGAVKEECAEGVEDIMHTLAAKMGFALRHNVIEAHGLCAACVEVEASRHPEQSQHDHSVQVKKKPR

Data set [2] deals with T2, Zur(Zn) D49A Cy5-C113 (Escherichia coli, UniProt P0AC51 1-171, C17S;D49A;C152S;C158S).
T2 sequence: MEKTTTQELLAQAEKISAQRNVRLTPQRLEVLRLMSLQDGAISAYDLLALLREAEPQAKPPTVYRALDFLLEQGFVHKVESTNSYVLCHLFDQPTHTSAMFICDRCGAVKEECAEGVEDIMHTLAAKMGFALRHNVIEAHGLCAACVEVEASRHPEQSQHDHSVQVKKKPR

The target in data set [3] is T1, Zur(Zn) Cy5-C113. This is another data set of the same source.
Data set [4] has as its target T3, Zur(Zn) Cy5-C158 (Escherichia coli, UniProt P0AC51 1-171, C17S;C113S;C152S).
T3 sequence: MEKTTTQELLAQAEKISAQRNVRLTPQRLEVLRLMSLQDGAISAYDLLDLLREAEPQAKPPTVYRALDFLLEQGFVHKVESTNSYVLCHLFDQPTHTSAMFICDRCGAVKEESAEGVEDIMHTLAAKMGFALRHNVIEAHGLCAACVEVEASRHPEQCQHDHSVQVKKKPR

The target in data set [5] is T2, Zur(Zn) D49A Cy5-C113. The source holds these as a separate data set.

The text below walks through data of publication PMC11618457.

Like-named read-outs stand apart in the source and are kept apart here.

B1: 31-bp znuCB promoter DNA (dsDNA)
DNA 1: AGAAGTGTGATATTATAACATTTCATGACTA
DNA 2: TAGTCATGAAATGTTATAATATCACACTTCT
For B1, the binding result in data set [1] and in data set [2] was “binds” in each case.

B2: 22-bp truncated znuCB DNA (one dyad) (dsDNA)
DNA 1: AGAAGTGTGATATTATAACATT
DNA 2: AATGTTATAATATCACACTTCT
B2: the binding result in data set [3], in data set [4] and in data set [5] was “binds” in each case.
